Measurements as given in article PMC13090976 (Cell Stress & Chaperones, 2026).
Changes are numbered by the printed parent chain. Names may count otherwise. Each block holds one molecule with its values, some of them ahead of it. Square brackets hold non-standard residues; d marks the D form. Ends that are not written are not given here. Peptide text beside a SMILES is read from it. * marks the point of attachment. FITC = O=C1OC2(c3ccc(O)cc3Oc3cc(O)ccc32)c2ccc(NC(=S)*)cc21; Biotin = O=C1N[C@H]2[C@H](CS[C@H]2CCCCC(=O)*)N1; pT = C[C@@H](OP(=O)(O)O)[C@H](N)C(=O)O; Ahx = NCCCCCC(=O)O

T1: full-length wild-type CHIP (Homo sapiens, UniProt Q9UNE7)
T1 construct: Recombinant CHIP-TPR (residues 21-154) and full-length CHIP proteins were expressed and purified as described; HIS; made in house
T1 sequence (Q9UNE7 1-303): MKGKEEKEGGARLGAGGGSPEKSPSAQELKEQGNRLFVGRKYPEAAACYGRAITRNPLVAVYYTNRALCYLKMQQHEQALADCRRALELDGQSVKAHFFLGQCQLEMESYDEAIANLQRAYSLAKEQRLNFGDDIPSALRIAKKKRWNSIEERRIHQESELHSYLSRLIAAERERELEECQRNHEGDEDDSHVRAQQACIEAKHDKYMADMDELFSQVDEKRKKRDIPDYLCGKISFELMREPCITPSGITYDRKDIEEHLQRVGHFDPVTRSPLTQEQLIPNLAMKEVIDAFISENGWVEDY

T2: full-length CHIP-G132N (Homo sapiens, UniProt Q9UNE7, G132N)
T2 construct: HIS; made in house
T2 sequence (Q9UNE7 1-303 G132N): T1 sequence (Q9UNE7 1-303) with G132N

T3: CHIP TPR (fluorescence polarization construct) (human)
T3 chain: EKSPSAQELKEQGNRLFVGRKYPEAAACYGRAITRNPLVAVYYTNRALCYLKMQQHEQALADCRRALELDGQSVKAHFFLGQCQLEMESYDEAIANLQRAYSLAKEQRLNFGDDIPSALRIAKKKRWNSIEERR

T4: full-length CHIP (wild-type) (human, UniProt Q9UNE7 1-303)
T4 construct: CHIP (STUB1), full length, wild-type; Vector CHIP of the JCS lab; also called CHIP-WT; STUB1
T4 sequence (looked up): T1 sequence (Q9UNE7 1-303)

T5: human CHIP-TPR (residues 21-154) (human, UniProt Q9UNE7 21-154)
T5 construct: also called wild-type CHIP-TPR
T5 sequence (looked up): T3 chain

T6: G132N CHIP-TPR (human, UniProt Q9UNE7 21-154, G132N)
T6 construct: CHIP (STUB1), human, TPR domain with G132N; also called G132N variant
T6 sequence (looked up): T3 chain with G112N

B1: G132N: structure-guided G132N substitution variant of CHIP (protein)
chain: T1 sequence (Q9UNE7 1-303) with G132N
modifications: left off: HIS, end not stated, state not stated
notes: structure-guided G132N substitution variant of CHIP
B2: FITC-Ahx-GSGPTIEEVD (peptide)
peptide: {FITC-Ahx}-GSGPTIEEVD
notes: C-terminal tail of human HSP70 (HSPA1A); also called EEVD (fluorescence polarization tracer); unphosphorylated EEVD peptide; source: synthetic peptide (Lifetein/Genscript)
B3: biotin-GSGSGP(pT)IEEVD (peptide)
peptide: Biotin-GSGSGP[pT]IEEVD
notes: C-terminal tail of human HSP70 (HSPA1A), Thr636 phosphorylated; also called biotin-pEEVD; biotinylated pEEVD peptide; source: synthetic peptide (Lifetein/Genscript)
B4: biotin-GSGSGPTIEEVD (peptide)
peptide: Biotin-GSGSGPTIEEVD
notes: C-terminal tail of human HSP70 (HSPA1A); also called biotin-EEVD; biotinylated EEVD peptide; source: synthetic peptide (Lifetein/Genscript)
B5: CHIP TPR (fluorescence polarization construct) (domain or fragment)
chain: T3 chain
B6: CHIP TPR-CC (domain or fragment)
chain: MKGKEEKEGGARLGAGGGSPEKSPSAQELKEQGNRLFVGRKYPEAAACYGRAITRNPLVAVYYTNRALCYLKMQQHEQALADCRRALELDGQSVKAHFFLGQCQLEMESYDEAIANLQRAYSLAKEQRLNFGDDIPSALRIAKKKRWNSIEERRIHQESELHSYLSRLIAAERERELEECQRNHEGDEDDSHVRAQQACIEAKHDKYMADMDELFSQVDEKRKKR

Experiments:
proteasome = assay: Proteasome-dependent turnover of HSP70 T636 variants; type: cell-based; conditions: relative to WT and T636A, Figure S3
[1] = molecular target: T1, full-length wild-type CHIP; assay: Fluorescence polarization, full-length wild-type CHIP with HSP70 C-terminal peptide; conditions: Fig. 4c binding curve, value in picture; FITC-Ahx-labelled peptide 20 nM, room temperature, 30 min; n = 3 independent experiments
Text: (§1) Plasmids were propagated in DH5α Escherichia coli and purified using Qiagen Miniprep or Bio-Rad Midiprep kits. Mutations were introduced with Q5 (NEB) or QuikChange II XL (Agilent) kits and verified by Sanger sequencing. Peptides (Lifetein/Genscript) included unphosphorylated […] (EEVD), phosphorylated GP(pT)IEEVD (pEEVD), biotin-[…] (biotin-EEVD), biotin-GSGSGP(pT)IEEVD (biotin-pEEVD), and FITC-Ahx-[…] or FITC-Ahx-GSGP(pT)IEEVD for polarization assays. Recombinant CHIP-TPR (residues 21-154) and full-length CHIP proteins were expressed and purified as described.[8], [29]
(§2) The N-terminally labeled peptides were loaded into PCR reaction tubes at 2X (40 nM), resulting in a final concentration of 20 nM. Recombinant CHIP constructs were added to the tubes at the indicated concentrations. The reaction was left at room temperature for 30 min before loading into black, low-volume, round-bottom 384-well plates (Greiner Bio-One) with inter-run triplicates at 18 μl each and subsequently repeated independently 2 more times. […] The polarization readings were normalized to the dilution buffer. Gain adjustment was made to the tracer HSP70 peptides alone.

full-length CHIP-G132N = molecular target: T2, full-length CHIP-G132N; assay: Fluorescence polarization, full-length CHIP-G132N; conditions: Fig. 4d binding curve, value in picture; FITC-Ahx-labelled peptide 20 nM, room temperature, 30 min; n = 3 independent experiments
Text: as §1, §2

CHIP = CHIP (UniProt Q9UNE7); assay: fluorescence polarization titration; conditions: reference: unphosphorylated EEVD peptide; sites T636
HSP70 [2] = assay: Co-immunoprecipitation, steady-state HSP70-CHIP interaction; type: cell-based; conditions: phosphomimetic HSP70, Figure S1
HSP70 [3] = assay: NanoBiT, transient cellular HSP70-CHIP interaction; type: cell-based; conditions: Figure S1
HSP70 [4] = assay: In vitro HSP70 ubiquitination; type: biochemical; conditions: Figure S2
[5] = molecular target: T3, CHIP TPR (fluorescence polarization …); assay: FP
[6] = molecular target: T4, full-length CHIP (wild-type); assay: fluorescence polarisation; FITC-labelled peptide at 20 nM, recombinant CHIP constructs added at varied concentrations, 30 min at room temperature; one-site total binding fit, normalised to % of maximum binding; conditions: both partners purified
[7] = molecular target: T5, human CHIP-TPR (residues 21-154); assay: BLI; BLItz, biotinylated peptide loaded on streptavidin sensors, TPR construct at 1 to 25 uM in solution; 20 mM HEPES, 150 mM NaCl, 5 mM beta-mercaptoethanol, pH 7.2; Kd = koff/kon from individual fits; conditions: both partners purified
G132N CHIP-TPR = molecular target: T6, G132N CHIP-TPR; assay: as above; conditions: both partners purified
FITC-Ahx-GSGPTIEEVD = molecular target: B2; assay: fluorescence polarisation; FITC-labelled peptide at 20 nM, recombinant CHIP constructs added at varied concentrations, 30 min at room temperature; one-site total binding fit, normalised to % of maximum binding; conditions: both partners purified

Molecule: T636D phosphomimetic: HSP70 T636D phosphomimetic variant
turnover (proteasome): accelerated proteasome-dependent turnover

Kd [1]: 46 nM | Kd (full-length CHIP-G132N): 96 nM
Molecule: CC[C@H](C)[C@H](NC(=O)[C@@H](NC(=O)[C@@H]1CCCN1C(=O)CN)[C@@H](C)OP(=O)(O)O)C(=O)N[C@@H](CCC(=O)O)C(=O)N[C@@H](CCC(=O)O)C(=O)N[C@H](C(=O)N[C@@H](CC(=O)O)C(=O)O)C(C)C [pEEVD, GP(pT)IEEVD] (H-GP[pT]IEEVD-OH)

Kd [1]: 6.5 nM | Kd (full-length CHIP-G132N): 9.2 nM
Molecule: CC[C@H](C)[C@H](NC(=O)[C@@H](NC(=O)[C@@H]1CCCN1C(=O)CN)[C@@H](C)O)C(=O)N[C@@H](CCC(=O)O)C(=O)N[C@@H](CCC(=O)O)C(=O)N[C@H](C(=O)N[C@@H](CC(=O)O)C(=O)O)C(C)C [EEVD] (H-GPTIEEVD-OH)

fold change (CHIP): weaker
Molecule: HSP70 C-terminal tail (from UniProt P0DMV8) pT636 pEEVD peptide

Molecule: B1
rescue of interaction in co-immunoprecipitation (HSP70 [2]): no rescue | binding to the non-mimetic HSP70 (HSP70 [3]): overall reducing binding | HSP70 ubiquitination activity (HSP70 [4]): retained HSP70 ubiquitination activity

Molecule: B2
Kd [5]: 42000 nM | Kd [6]: 7 nM

Molecule: B3
Kd [7]: 5230 nM | Kd (G132N CHIP-TPR): 1250 nM

Molecule: B4
Kd [7]: 592 nM | Kd (G132N CHIP-TPR): 597 nM

Molecule: B5
Kd (FITC-Ahx-GSGPTIEEVD): 28 nM

Molecule: B6
Kd (FITC-Ahx-GSGPTIEEVD): 42 nM
